B1: chimeric HIRMAb (monoclonal antibody to the human insulin receptor) (antibody, human IgG1, kappa)
heavy: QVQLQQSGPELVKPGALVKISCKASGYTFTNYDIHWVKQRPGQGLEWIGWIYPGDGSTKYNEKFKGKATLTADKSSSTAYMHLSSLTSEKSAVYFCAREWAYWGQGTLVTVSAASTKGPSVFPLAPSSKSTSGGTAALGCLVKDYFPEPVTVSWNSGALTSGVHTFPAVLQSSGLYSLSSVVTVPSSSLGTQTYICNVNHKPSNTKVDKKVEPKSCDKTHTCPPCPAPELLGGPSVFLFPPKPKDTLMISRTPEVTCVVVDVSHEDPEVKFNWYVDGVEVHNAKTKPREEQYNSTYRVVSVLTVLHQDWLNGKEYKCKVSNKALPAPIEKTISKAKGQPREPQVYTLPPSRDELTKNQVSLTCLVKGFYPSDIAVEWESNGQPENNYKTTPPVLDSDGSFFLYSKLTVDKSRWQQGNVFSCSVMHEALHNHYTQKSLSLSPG
light: DIQMTQSPSSLSASLGERVSLTCRASQDIGGNLYWLQQGPDGTIKRLIYATSSLDSGVPKRFSGSRSGSDYSLTISSLESEDFVDYYCLQYSSSPWTFGGGTKMEIKRTVAAPSVFIFPPSDEQLKSGTASVVCLLNNFYPREAKVQWKVDNALQSGNSQESVTEQDSKDSTYSLSSTLTLSKADYEKHKVYACEVTHQGLSSPVTKSFNRGEC
notes: Its tie to the tested chimeric HIRMAb is indirect; MW 150 kDa; also called HIR Ab; chimeric HIR Ab
B2: HIRMAb-SGSH fusion protein (antibody, human IgG1, kappa)
heavy: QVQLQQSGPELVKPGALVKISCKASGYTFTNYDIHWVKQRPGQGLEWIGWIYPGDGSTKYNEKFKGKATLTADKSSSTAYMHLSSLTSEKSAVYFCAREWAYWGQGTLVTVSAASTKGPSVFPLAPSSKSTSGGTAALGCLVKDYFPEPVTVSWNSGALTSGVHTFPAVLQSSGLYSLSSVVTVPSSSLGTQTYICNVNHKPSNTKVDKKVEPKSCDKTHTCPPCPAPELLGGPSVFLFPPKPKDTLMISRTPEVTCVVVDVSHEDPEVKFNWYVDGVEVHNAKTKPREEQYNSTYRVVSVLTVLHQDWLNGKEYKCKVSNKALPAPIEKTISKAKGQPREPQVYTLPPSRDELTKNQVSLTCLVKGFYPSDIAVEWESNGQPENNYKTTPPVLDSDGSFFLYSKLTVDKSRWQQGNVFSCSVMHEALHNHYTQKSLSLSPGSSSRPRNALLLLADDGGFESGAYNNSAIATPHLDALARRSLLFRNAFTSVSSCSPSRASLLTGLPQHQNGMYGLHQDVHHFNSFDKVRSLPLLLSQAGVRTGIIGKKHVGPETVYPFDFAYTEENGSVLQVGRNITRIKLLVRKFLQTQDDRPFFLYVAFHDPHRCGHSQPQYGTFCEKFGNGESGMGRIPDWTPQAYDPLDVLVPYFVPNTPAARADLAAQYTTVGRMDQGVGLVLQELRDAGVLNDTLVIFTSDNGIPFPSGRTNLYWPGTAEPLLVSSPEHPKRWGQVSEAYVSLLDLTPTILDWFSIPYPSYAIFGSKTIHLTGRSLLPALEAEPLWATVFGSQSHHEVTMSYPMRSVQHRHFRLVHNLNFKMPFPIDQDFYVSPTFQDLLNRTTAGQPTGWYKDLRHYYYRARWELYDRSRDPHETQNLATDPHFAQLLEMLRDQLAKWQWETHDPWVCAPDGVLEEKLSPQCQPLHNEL
light: DIQMTQSPSSLSASLGERVSLTCRASQDIGGNLYWLQQGPDGTIKRLIYATSSLDSGVPKRFSGSRSGSDYSLTISSLESEDFVDYYCLQYSSSPWTFGGGTKMEIKRTVAAPSVFIFPPSDEQLKSGTASVVCLLNNFYPREAKVQWKVDNALQSGNSQESVTEQDSKDSTYSLSSTLTLSKADYEKHKVYACEVTHQGLSSPVTKSFNRGEC
modifications: Cys-514 of SEQ ID NO 10 undergoes post-translational conversion to formylglycine (inferred by the filing from retained enzyme activity)
notes: IgG-enzyme fusion, hetero-tetramer, CHO-derived, estimated MW 325 kDa; also called HIR Ab-SGSH fusion protein; HIR Ab-SGSH fusion antibody

Columns and labels:
[1] = target: T1, human insulin receptor extracellular domain (HIR ECD) (human, UniProt P06213 28-956, limits assumed); experiment: ELISA, HIR ECD plated; after normalization for MW (150 kDa)
T1 construct: extracellular domain
Experimental: (§1) The affinity of the fusion protein for the HIR extracellular domain (ECD) was determined with an ELISA. CHO cells permanently transfected with the HIR ECD were grown in serum free media (SFM), and the HIR ECD was purified with a wheat germ agglutinin affinity column, as previously described in Coloma et al. (2000) Pharm Res, 17:266-274. The HIR ECD was plated on Nunc-Maxisorb 96 well dishes and the binding of the HIR Ab, or the HIR Ab-SGSH fusion protein, to the HIR ECD was detected with a biotinylated goat anti-human IgG (H+L) secondary antibody, followed by avidin and biotinylated peroxidase (Vector Labs, Burlingame, Calif.). […] The MW of the HIR Ab is 150 kDa, and the MW of the HIR Ab-SGSH fusion protein is 325 kDa.

[2] = target: T1, human insulin receptor extracellular …; experiment: ELISA, HIR ECD plated, biotinylated anti-human IgG detection
Experimental: as §1

[3] = target: T1, human insulin receptor extracellular …; experiment: ELISA, HIR ECD plated; after normalization for MW (325 kDa)
Experimental: as §1

Binder | EC50 [1] [nM] | EC50 [2] [µg/mL] | EC50 [3] [nM]
B1 | 0.19 | 0.029 | –
B2 | – | 0.107 | 0.33
